Among the data in patent US20110166072A1 are IC50, Platelet aggregation IC50 and Osteoclastogenesis IC50 values, retold here.

The target of assay [1] is integrin αIIbβ3 (on CHO-αIIbβ3 cells) (UniProt P08514). The assay can be described thus: cell adhesion inhibition: CHO-αIIbβ3 cells on coated fibrinogen.
Assay [2] concerns the target platelet glycoprotein αIIbβ3 (on human platelets) (human) (UniProt P08514). Description: cell-based or functional assay.
For assay [3], the target named is integrin αvβ3 (on rat osteoclast precursors) (rat). Description: cell-based or functional assay.

For orientation: IC50 means the concentration at which inhibition is half-maximal. Higher therefore signals lower potency. For the substance “PRPDDL (from UniProt P30403 408-475) (ligand; other documents disagree on this pair)”, the IC50 in assay [1] was found to be 13.6 µM.

“HSA-RD (human serum albumin-RD fusion protein) (from UniProt P30403 408-475) (other; other documents disagree on this pair)” registered an IC50 in assay [1] of 2.75 µM.

In turn, “PRPDDL (from UniProt P30403 408-475) (ligand)” gave a Platelet aggregation IC50 in assay [2] of 3.53 µM.

As for “AKGDWN (from UniProt P30403 408-475) (ligand)”, the Osteoclastogenesis IC50 in assay [3] came to 78.4 µM. In assay [2], this substance returned a Platelet aggregation IC50 of 0.138 µM.

In assay [1], “AKGDWN (from UniProt P30403 408-475) (ligand; other documents disagree on this pair)” displayed an IC50 of 0.069 µM.

In turn, “HSA-RD (human serum albumin-RD fusion protein) (from UniProt P30403 408-475)” came in with an Osteoclastogenesis IC50 in assay [3] of 0.00668 µM. In assay [2], this substance gave a Platelet aggregation IC50 of 0.438 µM.

In assay [3], “PRGEMP (from UniProt P30403 408-475) (ligand)” registered an Osteoclastogenesis IC50 of 68.2 µM. The same substance had a Platelet aggregation IC50 in assay [2] of 4.91 µM.
